Assay [1] concerns the target human TREM-1 on cells (human) (UniProt Q9NP99). The experiment in a line: cell-based or functional assay.
For assay [2], the target named is human TREM-1 (hTREM-1) protein (human) (UniProt Q9NP99). The experiment in a line: SPR, mAb captured by anti-Fc, hTREM-1 as analyte (Example 11).
For assay [3], the target named is T1, full length cynomolgus monkey (c)TREM-1 on cells (cynomolgus monkey).
T1 sequence: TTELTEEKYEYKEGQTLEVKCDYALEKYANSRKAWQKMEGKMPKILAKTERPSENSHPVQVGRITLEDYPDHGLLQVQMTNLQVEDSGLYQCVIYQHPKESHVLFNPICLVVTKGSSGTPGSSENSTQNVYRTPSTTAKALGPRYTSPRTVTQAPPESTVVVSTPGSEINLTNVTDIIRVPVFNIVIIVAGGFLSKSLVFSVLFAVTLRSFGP
The experiment in a line: cell-based or functional assay.

The target of assay [4] is cynomolgus TREM-1 (cTREM-1) protein (cynomolgus monkey). The experiment in a line: SPR, mAb captured by anti-Fc, cTREM-1 as analyte (Example 11). For orientation: Surface plasmon resonance follows binding to a sensor surface in real time, without labels.

A value given as a limit tells only on which side of the number the result lay.

By Kd is commonly meant a measure of binding affinity in units of concentration.

Sequence of human TREM-1 on cells (human) (Q9NP99 21-234 limits assumed): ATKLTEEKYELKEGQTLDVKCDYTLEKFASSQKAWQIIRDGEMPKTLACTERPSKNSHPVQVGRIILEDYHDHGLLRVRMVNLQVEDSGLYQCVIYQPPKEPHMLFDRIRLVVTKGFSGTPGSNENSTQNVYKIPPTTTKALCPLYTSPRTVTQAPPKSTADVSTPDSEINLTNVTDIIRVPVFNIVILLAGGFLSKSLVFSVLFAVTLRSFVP
Sequence of human TREM-1 (hTREM-1) protein (human) (Q9NP99 21-200 limits assumed): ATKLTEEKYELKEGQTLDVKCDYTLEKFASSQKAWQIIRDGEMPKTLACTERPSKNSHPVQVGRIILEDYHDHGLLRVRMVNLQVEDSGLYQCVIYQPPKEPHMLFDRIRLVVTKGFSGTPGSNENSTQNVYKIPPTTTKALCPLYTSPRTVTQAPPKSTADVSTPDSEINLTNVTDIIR
Sequence of recombinant human PGLYRP1 expressed from E. coli and refolded (O75594 22-196 limits assumed): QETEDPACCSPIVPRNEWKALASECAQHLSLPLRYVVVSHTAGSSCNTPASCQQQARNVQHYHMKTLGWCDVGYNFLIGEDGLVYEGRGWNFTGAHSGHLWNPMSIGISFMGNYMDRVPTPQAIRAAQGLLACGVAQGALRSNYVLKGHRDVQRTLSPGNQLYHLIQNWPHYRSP

Consider “HM2252 (clone 6B1, Hycult Biotech) (antibody)”, for which, in assay [1], the % remaining activity at 0.003 µg/ml, BWZ/hTREM-1 reporter came out at 96%; the % remaining activity at 0.03 µg/ml, BWZ/hTREM-1 reporter is 122%; the % remaining activity at 0.3 µg/ml, BWZ/hTREM-1 reporter worked out at 113%. In addition, in assay [2], the Kd came out at 3 nM.

On to “MAB1278 (R&D Systems, cat. no. MAB1278) (antibody)”, for which, in assay [1], the BWZ/hTREM-1 reporter signal, RA synovial fluid, mAb at 0.1 ug/ml, assay 1 was 829000; the BWZ/hTREM-1 reporter signal, RA synovial fluid, mAb at 0.1 ug/ml, assay 2 was 691000; the BWZ/hTREM-1 reporter signal, RA synovial fluid, mAb at 1 ug/ml, assay 1 was 1.19e+06; the BWZ/hTREM-1 reporter signal, RA synovial fluid, mAb at 1 ug/ml, assay 2 worked out at 1.02e+06. Besides, in assay [1], the BWZ/hTREM-1 reporter signal, RA synovial fluid, mAb at 10 ug/ml, assay 1 was 1.08e+06; the BWZ/hTREM-1 reporter signal, RA synovial fluid, mAb at 10 ug/ml, assay 2 worked out at 1.05e+06; the IL-6, M2 macrophages on platebound mAb 2 µg/ml was 412 pg/mL; the IL-6, M2 macrophages on platebound mAb 6 µg/ml stood at 877 pg/mL. Besides, in assay [1], the IL-6, M2 macrophages on platebound mAb 20 µg/ml amounted to 1350 pg/mL; the Luminescence, BWZ/hTREM-1 reporter cell + activated neutrophils (8.8 x 10E6 without antibody) is 1e+07 luminescence; the TNFa, M2 macrophages on platebound mAb 2 µg/ml is 2000 pg/mL; the TNFa, M2 macrophages on platebound mAb 6 µg/ml turned out to be 6450 pg/mL. Besides, in assay [1], the TNFa, M2 macrophages on platebound mAb 20 µg/ml came out at 7750 pg/mL; the fold induction of the BWZ/hTREM-1 reporter signal by platebound antibody is 32 fold; the induction of NFAT-driven LacZ production, 1-10 µg/ml plate bound antibody against isotype control was determined as 40 fold; the normalised reporter signal, PGN-activated neutrophils (normalised signal) is more than 1. Besides, the Kd in assay [2] turned out to be 8 nM.

For the substance “SAB1405121 (clone 3F5, Sigma Aldrich) (antibody)”, in assay [1], the % remaining activity at 0.003 µg/ml, BWZ/hTREM-1 reporter was found to be 104%; the % remaining activity at 0.03 µg/ml, BWZ/hTREM-1 reporter came out at 101%; the % remaining activity at 0.3 µg/ml, BWZ/hTREM-1 reporter stood at 97%.

For the substance “WH0054210M4 (clone 2E2, Sigma Aldrich) (antibody)”, in assay [1], the % remaining activity at 0.003 µg/ml, BWZ/hTREM-1 reporter worked out at 98%; the % remaining activity at 0.03 µg/ml, BWZ/hTREM-1 reporter was 104%; the % remaining activity at 0.3 µg/ml, BWZ/hTREM-1 reporter was 86%. In addition, the dissociation constant (Kd) in assay [2] was 20 nM.

For the substance clone TREM-26 (Biolegend) (antibody), in assay [3], the % remaining cyno TREM-1 activity at 0.74 ug/ml, reporter cell came to 104% and the % remaining cyno TREM-1 activity at 20 ug/ml, reporter cell was 87.7%. For the same substance, in assay [1], the % remaining activity at 0.003 µg/ml, BWZ/hTREM-1 reporter is 100%; the % remaining activity at 0.03 µg/ml, BWZ/hTREM-1 reporter stood at 124%; the % remaining activity at 0.3 µg/ml, BWZ/hTREM-1 reporter is 108%; the Luminescence, BWZ/hTREM-1 reporter cell + activated neutrophils (8.8 x 10E6 without antibody) was 9.9e+06 luminescence. The same substance registered a normalised reporter signal, PGN-activated neutrophils (normalised signal) in assay [1] of more than 1. In assay [4], this substance gave a dissociation constant (Kd) of 4 nM. Also, the Kd in assay [2] worked out at 0.9 nM.

For the substance “clone TREM-37 (Biolegend, cat. no. 316102) (antibody)”, in assay [1], the % remaining activity at 0.003 µg/ml, BWZ/hTREM-1 reporter worked out at 98%; the % remaining activity at 0.03 µg/ml, BWZ/hTREM-1 reporter came out at 103%; the % remaining activity at 0.3 µg/ml, BWZ/hTREM-1 reporter was 90%; the Luminescence, BWZ/hTREM-1 reporter cell + activated neutrophils (8.8 x 10E6 without antibody) was determined as 6.1e+06 luminescence. The same substance gave a normalised reporter signal, PGN-activated neutrophils (normalised signal) in assay [1] of more than 1. In assay [2], this substance showed a Kd of 0.8 nM.

Turning to “recombinant human PGLYRP1 expressed from E. coli and refolded (from UniProt O75594 22-196) (ligand)”, in assay [3], the TNF-α, cynomolgus M2 macrophages, PGN + PGRP-S, donor 1 stood at 295 pg/mL and the TNF-α, cynomolgus M2 macrophages, PGN + PGRP-S, donor 2 is 307 pg/mL. In assay [1], the GM-CSF, RA synovial tissue cells, PGN + PGLYRP1 (PGN alone 182) stood at 616 pg/mL; the IL-1beta, RA synovial tissue cells, PGN + PGLYRP1 (PGN alone 2419) came to 3770 pg/mL; the IL-6, RA synovial tissue cells, PGN + PGLYRP1 (PGN alone 2057) came out at 4190 pg/mL; the IL-8, RA synovial tissue cells, PGN + PGLYRP1 (PGN alone 2575) was 5510 pg/mL. In assay [1], the MCP-1, RA synovial tissue cells, PGN + PGLYRP1 (PGN alone 273) turned out to be 471 pg/mL; the MIP-1beta, RA synovial tissue cells, PGN + PGLYRP1 (PGN alone 2458) stood at 4400 pg/mL; the TNFa, normoxic M2 macrophages, PGN-BS + PGLYRP1, donor 1 (PGN-BS alone 427) was found to be 728 pg/mL; the TNFa, normoxic M2 macrophages, PGN-BS + PGLYRP1, donor 2 (PGN-BS alone 381) came to 771 pg/mL. Further, the TNFalpha, RA synovial tissue cells, PGN + PGLYRP1 (PGN alone 624) in assay [1] came to 1440 pg/mL.

With “sc-80394 (clone 98Z12, Santa Cruz Biotechnology) (antibody)”, in assay [1], the % remaining activity at 0.003 µg/ml, BWZ/hTREM-1 reporter was determined as 120%; the % remaining activity at 0.03 µg/ml, BWZ/hTREM-1 reporter is 134%; the % remaining activity at 0.3 µg/ml, BWZ/hTREM-1 reporter came to 131%. In assay [2], the Kd was found to be 30 nM.

“type II PGLYRP1 on transiently transfected HEK cells (ligand)”: in assay [1], the TNF-a release, RA synovial tissue cells + IgG4 + 1 x 10^3 Type II cells came out at 57.9 pg/mL; the TNF-a release, RA synovial tissue cells + IgG4 + 1 x 10^4 Type II cells amounted to 95 pg/mL; the TNF-a release, RA synovial tissue cells + IgG4 + 1 x 10^5 Type II cells came out at 121 pg/mL; the TNF-a release, RA synovial tissue cells + IgG4 + 3 x 10^3 Type II cells is 54.6 pg/mL. Moreover, in assay [1], the TNF-a release, RA synovial tissue cells + IgG4 + 3 x 10^4 Type II cells stood at 114 pg/mL.
